Values joined by “and” are separate entries in the source; they are usually repeats but may differ in a detail not shown here. Equal entries are not always repeated.
Columns and labels:
C26 tumors = assay: Tumor regression and survival, C26 colon cancer model; assay type: in vivo, Balb/C mice
Protocol: (§1) Cell culture and tumor inoculation.
Tumor regression and survival. […] Tumor size and body weight were monitored over a span of two months. Tumor volume was calculated as follows: Volume [mm^3]=length×width 2×π/6. Mice with a tumor volume greater 1000 mm^3 or body weight loss greater than 15% were euthanized.

[1] = Canine hematology one week after administration; assay type: in vivo, dogs (beagles and hounds); settings: dogs
From the text: (§2) Canine pharmacokinetics and toxicities. […] If noted, supportive care was provided.

[2] = Canine serum chemistry one week after administration; assay type: in vivo, dogs (beagles and hounds); settings: dogs
From the text: as §2

[3] = pH dependent drug release
Protocol: pH dependent drug release. […] Samples were incubated at 37° C. for 0.0, 0.25, […], 0.5, 1, 2, 4, 6, or 24 hr and were neutralized by addition of pH 7.4 (0.1 M NaH2PO4). […] Eluting peaks were detected with a UV-Visible detector set at 490 nm. […] HPLC data was quantified by integrating the area under the peak corresponding to the free drug. […] For pH 5.0 samples, data points were fit by nonlinear regression to a first order release model: F %, released=a[1−exp(−ln(2) t/t1/2)] (1) where t is the time (hrs) after incubation, t1/2 is the half-life (hrs) of release, and a (%) is the maximum extent of drug release.

[4] = Biodistribution in C26 tumor-bearing mice; assay type: in vivo, Balb/C mice; settings: 2 h and 24 h time points
Protocol: as §1
Biodistribution. […] At 2 and 24 h after injection, tissues (tumor, muscle, heart, lung, liver, spleen and kidney) were removed, weighed and suspended in 1.0 mL acidified isopropanol (75 mM HCl, 10% water, 90% isopropanol). Tissues were then homogenized using 2 mm diameter zirconia beads and a MiniBeadbeater-1TM (Biospec; Bartlesville, OK) for 2 min at 5,000 beats per minute and were incubated overnight at 4° C. in the dark. The isopropanol extracts were then vortexed, and centrifuged (14,000 RPM, 10 min, 4° C.) and 125 uL of the supernatant was loaded onto a black 96-well plate (BD Biosciences) in duplicate. […] To correct for background tissue fluorescence, tissues were removed from three untreated control mice and were processed similarly. For each tissue, a background (counts per mg tissue) curve was created using 2-fold dilutions of the processed tissues in acidified isopropanol.

[5] = Dynamic and static light scattering; assay type: physicochemical; settings: for Rh / Nagg / Rg: PBS; for Nagg / Rg: SLS
Protocol: Light Scattering. Dynamic and static light scattering measurements were performed using an ALV/CGS-3 goniometer system (Germany). […] To study the effect of albumin binding on micellar self-assembly, mouse albumin was added to the samples at 1:1 albumin-CP molar ratio in PBS. Measurements were obtained at 25° C. and 37° C. for angles between 30-150° at 5° increments with each angle consisting of 3 runs and 10 s each at each run. Hydrodynamic radius (Rh) was determined by dynamic light scattering. The radius of gyration (Rg) and the average molecular weight of the particle (MW) were calculated from the slope and intercept of a partial Zimm plot, respectively, using ALV/Dynamic and Static FIT and PLOT software and according. The micelle aggregation number Nagg, or the number of polypeptide chains per nanoparticle, was calculated by dividing the micelle molecular weight by the molecular weight of the polypeptide monomer.
Size and morphology of CP conjugated micelles. The radius and the aggregation number of the self-assembled micelles were determined, in the presence and absence of albumin, by dynamic and static light scattering at 37° C. using an ALV/CGS-3 goniometer system (Germany). Freeze fracture electron microscopy was performed to visualize the micelles and estimate their radius and morphology.

[6] = Thermal turbidimetry (transition temperature); assay type: physicochemical; settings: PBS (FIG. 8D)
Protocol: Thermal Turbidimetry. Thermal profiles of CPs and CP conjugates were determined by measuring the transition temperature (Tt) over a range of concentrations (5, 10, 25, 50, and 100 uM) in PBS, FBS, and MS using a Cary UV-visible spectrophotometer equipped with temperature controller (Agilent Technologies, CA, USA). […] The transition temperature was defined as the maximum first derivative of the optical density.

[7] = one week after administration, individual subjects

B1: ABDN-CP-DOX (conjugate)
chain: LAEAKVLANRELDKYGVSDYYKNLINNAKTVEGVKALIDEILAALPVPGAGVPGAGVPGAGVPGAGVPGAGVPGAGVPGAGVPGAGVPGAGVPGAGVPGAGVPGAGVPGAGVPGAGVPGAGVPGAGVPGAGVPGAGVPGAGVPGAGVPGAGVPGAGVPGAGVPGAGVPGAGVPGAGVPGAGVPGAGVPGAGVPGAGVPGAGVPGAGVPGAGVPGAGVPGAGVPGAGVPGAGVPGAGVPGAGVPGAGVPGAGVPGAGVPGAGVPGAGVPGAGVPGAGVPGAGVPGAGVPGAGVPGAGVPGAGVPGAGVPGAGVPGAGVPGAGVPGAGVPGAGVPGAGVPGAGVPGAGVPGAGVPGAGVPGAGVPGAGVPGAGVPGAGVPGAGVPGAGVPGAGVPGAGVPGAGVPGAGVPGAGVPGAGVPGAGVPGAGVPGAGVPGAGVPGAGVPGAGVPGAGVPGAGVPGAGVPGAGVPGAGVPGAGVPGAGVPGAGVPGAGVPGAGVPGAGVPGAGVPGAGVPGAGVPGAGVPGAGVPGAGVPGAGVPGAGVPGAGVPGAGVPGAGVPGAGVPGAGVPGAGVPGAGVPGAGVPGAGVPGAGVPGAGVPGAGVPGAGVPGAGVPGAGVPGAGVPGAGVPGAGVPGAGVPGAGVPGAGVPGAGVPGAGVPGAGVPGAGVPGAGVPGAGVPGAGVPGAGVPGAGVPGAGVPGAGVPGAGVPGAGVPGAGVPGAGVPGAGVPGAGVPGAGVPGAGVPGAGVPGAGVPGAGVPGAGCGGCGGCGGCGGCGGCGGCGGCGG
tumor bearing mice that survived 60 days after treatment (C26 tumors; DOX equivalent dose of 20 mg/kg BW): 50%
tumor growth (in words) (C26 tumors; mouse C26 colon cancer model, single treatment on day 0): significantly slower
Abonormal Lymphs [1, 7]: 0.157 10^3/μL and 0.561 10^3/μL
Hematocrit [1, 7]: 42.7% and 43.9%
Hemoglobin [1, 7]: 14.7 g/dL and 14.6 g/dL
Lymphocytes [1, 7]: 1.572 10^3/μL and 1.122 10^3/μL
MCH [1, 7]: 24.6 pg and 23.6 pg
MCHC [1, 7]: 34.3 g/dL and 33.2 g/dL
MCV [1, 7]: 71.7 fL and 71 fL
MPV [1, 7]: 12.2 fL and 11.9 fL
Monocytes [1, 7]: 0.314 10^3/μL and 0.21 10^3/μL
PCT [1, 7]: 0.28% and 0.25%
Packed Cell-Volume [1, 7]: 42%
Plasma Protein [1, 7]: 6.2 g/dL and 5.8 g/dL
Platelets [1, 7]: 228 X10^3/μL and 208 X10^3/μL
RBC [1, 7]: 5.97 X10^6/μL and 6.19 X10^6/μL
RDW [1, 7]: 12.8% and 11.7%
Reticulocyte # [1, 7]: 0.025 X10^6/μL and 0.014 X10^6/μL
Reticulocyte % [1, 7]: 0.43% and 0.23%
Reticulocyte Absolute [1, 7]: 25000 µL⁻¹ and 14000 µL⁻¹
Segmented Neutrophils [1, 7]: 5.502 10^3/μL and 4.276 10^3/μL
WBC [1, 7]: 7.86 X10^3/μL and 7.01 X10^3/μL
abnormalities in blood hematology (in words) ([1]; one week after infusion): no hematology or serum chemistry abnormalities
ALT [2, 7]: 18 IU/L and 21 IU/L
AST [2, 7]: 20 IU/L and 31 IU/L
Alb/Glob Ratio [2, 7]: 1.73 and 1.57
Albumin [2, 7]: 3.8 g/dL and 3.6 g/dL
Alkaline Phosphatase [2, 7]: 26 IU/L and 31 IU/L
Amylase [2, 7]: 597 IU/L and 677 IU/L
Anion Gap [2, 7]: 21 and 20.4
Bicarbonate [2, 7]: 22 mmol/L and 21 mmol/L
Bilirubin-Total [2, 7]: <0.2 mg/dL
CK [2, 7]: 141 IU/L and 296 IU/L
Calcium [2, 7]: 10.3 mg/dL and 10.7 mg/dL
Chloride [2, 7]: 109 mmol/L and 111 mmol/L
Cholesterol [2, 7]: 153 mg/dL and 94 mg/dL
Creatinine [2, 7]: 0.7 mg/dL
GGT [2, 7]: <3 IU/L
Globulin [2, 7]: 2.2 g/dL and 2.3 g/dL
Glucose [2, 7]: 90 mg/dL and 82 mg/dL
Lipase [2, 7]: 57 IU/L
Magnesium [2, 7]: 1.9 mg/dL and 2.2 mg/dL
Na/K Ratio [2, 7]: 37 and 33.6
Osomolality-Calc. [2, 7]: 293.8 mOsm/kg and 293.4 mOsm/kg
Phosphorus [2, 7]: 4.1 mg/dL and 4.7 mg/dL
Potassium [2, 7]: 4 mmol/L and 4.4 mmol/L
Protein-Total [2, 7]: 6 g/dL and 5.9 g/dL
Sodium [2, 7]: 148 mmol/L
Urea Nitrogen [2, 7]: 17 mg/dL and 15 mg/dL
abnormalities in blood serum chemistry (in words) ([2]; one week after infusion): no hematology or serum chemistry abnormalities
in vitro drug release (in words) ([3]; acidic conditions, pH 5.0, 37° C.): released the loaded DOX
in vitro drug release / stability (in words) ([3]; pH 7.4, 37° C.): remained stable
distribution to organs of the reticuloendothelial system i.e. liver and spleen (in words) [4]: significantly smaller than that of CP-DOX micelles
ρ = Rg/Rh ([5]; 22 ° C.): 0.62
Rh ([5]; 22 ° C., DLS): 59.0 nm and 59.00 nm
Nagg ([5]; 22 ° C.): 34.97
Rg ([5]; 22 ° C.): 36.95 nm
ρ = Rg/Rh ([5]; 37 ° C.): 0.766
Rh ([5]; 37 ° C., DLS): 45.63 nm
Nagg ([5]; 37 ° C.): 42.04
Rg ([5]; 37 ° C.): 34.97 nm
nanoparticle formation (in words) ([5]; DLS): form nanoparticles
aggregation (in words) ([5]; body temperature (37° C.)): remain aggregate-free
aggregation (in words) ([5]; room temperature (25° C.)): Neither ABDN-CP-DOX nor ABDH-CP-DOX conjugates aggregate
transition temperature after drug (DOX) conjugation [6]: 44 °C

From patent US12594347B2, “Nanoparticulate drug delivery systems” (Duke University, priority 2018, dated 2026)
